# Reference: article PMC3281842, “Crystal Structure of TDRD3 and Methyl-Arginine Binding Characterization of TDRD3, SMN and SPF30” (PLoS ONE, 2012)
# Square brackets hold non-standard residues; d marks the D form. Ends that are not written are not given here. Arg(Me2a) = CN(C)C(=N)NCCC[C@H](N)C(=O)O; Arg(Me2s) = CN=C(NC)NCCC[C@H](N)C(=O)O; Arg(Me) = CNC(=N)NCCC[C@H](N)C(=O)O
# T1: SPF30 (aa 65–150) (human, UniProt O75940 65-150)
# T1 construct: Splicing factor 30 kDa (SPF30, SMNDC1), human, residues 65-150, covers the Tudor domain; cloned into the pET28-MHL vector; also called Splicing factor 30 kDa; SMNDC1; source: E. coli BL21 (DE3), purified (Ni-NTA, size exclusion chromatography)
# T1 sequence (looked up): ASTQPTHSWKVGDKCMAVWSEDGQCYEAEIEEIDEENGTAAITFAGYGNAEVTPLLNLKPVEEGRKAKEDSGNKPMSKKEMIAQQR
# T2: SND1 (aa 650–910) (UniProt Q7KZF4 650-910)
# T2 construct: SND1, residues 650-910, extended Tudor domain; also called extended Tudor domain of SND1
# T2 sequence (looked up): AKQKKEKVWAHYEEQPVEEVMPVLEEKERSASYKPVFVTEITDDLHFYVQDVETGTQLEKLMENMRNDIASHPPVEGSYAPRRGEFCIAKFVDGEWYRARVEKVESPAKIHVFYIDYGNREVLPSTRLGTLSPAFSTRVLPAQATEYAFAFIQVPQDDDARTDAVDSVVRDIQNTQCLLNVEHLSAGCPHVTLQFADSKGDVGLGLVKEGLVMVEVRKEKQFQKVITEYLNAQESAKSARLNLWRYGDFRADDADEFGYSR
# B1: PIWIL1_R4me2a peptide (TGRme2aARARA) (peptide)
# peptide: TG[Arg(Me2a)]ARARA
# notes: N-terminal GAR motif stretch of PIWIL1, R4 asymmetrically dimethylated; also called PIWIL1_R4me2a peptide of the ITC measurement; source: synthetic peptide (Tufts University Core Services)
# B2: PIWIL1-R4me2s (peptide)
# peptide: TG[Arg(Me2s)]ARARARGRARGQE
# modifications: also: fluorescein label, position not given here
# notes: N-terminal GAR motif stretch of PIWIL1, R4 symmetrically dimethylated; also called symmetrical dimethylated peptide of the PIWIL1 protein; source: synthetic peptide (Tufts University Core Services)
# B3: SmD3RSDMA (peptide)
# peptide: GGRG[Arg(Me2s)]GRG
# modifications: also: fluorescein label, position not given here
# notes: GAR motif peptide named after SmD3; also called SmD3 peptide; source: synthetic peptide (Tufts University Core Services)
# B4: PIWIL1-R4un (peptide)
# peptide: TGRARARARGRARGQE
# modifications: also: fluorescein label, position not given here
# notes: N-terminal GAR motif stretch of PIWIL1, unmethylated; also called unmethylated PIWIL1 peptide; source: synthetic peptide (Tufts University Core Services)
# B5: PIWIL1-R4me1 (peptide)
# peptide: TG[Arg(Me)]ARARARGRARGQE
# modifications: also: fluorescein label, position not given here
# notes: N-terminal GAR motif stretch of PIWIL1, R4 monomethylated; also called monomethylated PIWIL1 peptide; source: synthetic peptide (Tufts University Core Services)
# B6: PIWIL1-R4me2a (peptide)
# peptide: TG[Arg(Me2a)]ARARARGRARGQE
# modifications: also: fluorescein label, position not given here
# notes: N-terminal GAR motif stretch of PIWIL1, R4 asymmetrically dimethylated; also called asymmetrical dimethylated PIWIL1 peptide; source: synthetic peptide (Tufts University Core Services)
# B7: H3R2me1 (peptide)
# peptide: A[Arg(Me)]TKQTARKSY
# modifications: also: fluorescein label, position not given here
# notes: histone H3 N-terminal tail; C-terminal tyrosine printed at the end of the peptide; also called histone H3R2 peptide, monomethylated; source: synthetic peptide (Tufts University Core Services)
# B8: PGM(SmB214SD) (peptide)
# peptide: PPGM[Arg(Me2s)]PPPPG
# modifications: also: fluorescein label, position not given here
# notes: PGM motif stretch of the splicing protein SmB; also called sDMA PGM motif peptide from SmB; source: synthetic peptide (Tufts University Core Services)
# B9: H3R2me2s (peptide)
# peptide: A[Arg(Me2s)]TKQTARKSY
# modifications: also: fluorescein label, position not given here
# notes: histone H3 N-terminal tail; C-terminal tyrosine printed at the end of the peptide; also called histone H3R2 peptide, symmetrically dimethylated; source: synthetic peptide (Tufts University Core Services)
# B10: PGM(SmB165SD) (peptide)
# peptide: YPPG[Arg(Me2s)]GGPPP
# modifications: also: fluorescein label, position not given here
# notes: as for B8
# B11: PGM(SmB221SD) (peptide)
# peptide: PPGM[Arg(Me2s)]GPPP
# modifications: also: fluorescein label, position not given here
# notes: as for B8
# B12: H3R2me2a (peptide)
# peptide: A[Arg(Me2a)]TKQTARKSY
# modifications: also: fluorescein label, position not given here
# notes: histone H3 N-terminal tail; C-terminal tyrosine printed at the end of the peptide; also called histone H3R2 peptide, asymmetrically dimethylated; source: synthetic peptide (Tufts University Core Services)
# Biological target: T3, TDRD3 (aa 520–633) (human, UniProt Q9H7E2 520-633)
# T3 construct: cloned into the pET28-MHL vector; also called Tudor domain-containing protein 3; source: E. coli BL21 (DE3), purified (Ni-NTA, size exclusion chromatography)
# Test: ITC; 20 mM Tris pH 8.0, 200 mM NaCl; 25°C; one-site binding model
# Conditions: both partners purified
row,binding result,Binder
1,binds,B1

# Biological target: T4, SMN construct covering only the Tudor domain (residues 82–147) (human, UniProt Q16637 82-147)
# T4 construct: Survival motor neuron protein (SMN), human, residues 82-147, only the Tudor domain; also called SMN Tudor domain; source: E. coli BL21 (DE3), purified (Ni-NTA, size exclusion chromatography)
# Test: fluorescence polarisation; fluorescein-labeled peptides; 20 mM Tris pH 7.5, 50 mM NaCl, 1 mM DTT, 0.01% Triton X-100; 25°C; one-site binding model; Kd the average of three independent measurements
# Conditions: both partners purified
# T4 sequence (Q16637 82-147): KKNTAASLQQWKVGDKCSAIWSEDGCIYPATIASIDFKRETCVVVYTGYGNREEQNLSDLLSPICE
row,Kd,Binder
1,46 µM,B2

# Biological target: T3, TDRD3 (aa 520–633)
# Test: as above
# Conditions: both partners purified
row,Kd,Binder
1,> 400 µM,B3
2,> 300 µM,B2
3,> 500 µM,B4
4,> 500 µM,B5
5,> 150 µM,B6

# Biological target: T5, SMN (aa 80–170) (human, UniProt Q16637 80-170)
# T5 construct: Survival motor neuron protein (SMN), human, residues 80-170, covers the Tudor domain; cloned into the pET28-MHL vector; also called Survival motor neuron protein; source: E. coli BL21 (DE3), purified (Ni-NTA, size exclusion chromatography)
# Test: as above
# Conditions: both partners purified
# T5 sequence (Q16637 80-170): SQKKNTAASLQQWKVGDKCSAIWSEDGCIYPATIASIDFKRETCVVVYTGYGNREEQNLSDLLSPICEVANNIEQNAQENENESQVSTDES
row,Kd,Binder
1,94 ± 4 µM,B3
2,> 300 µM,B7
3,34 ± 2 µM,B2
4,> 300 µM,B4
5,> 400 µM,B8
6,> 150 µM,B5
7,> 150 µM,B9
8,> 300 µM,B10
9,97 ± 3 µM,B6
10,> 500 µM,B11
11,> 200 µM,B12

# Biological target: T1, SPF30 (aa 65–150)
# Test: as above
# Conditions: both partners purified
row,Kd,Binder
1,> 200 µM,B2
2,> 500 µM,B4
3,> 500 µM,B5
4,> 400 µM,B6

# Biological target: T2, SND1 (aa 650–910)
# Test: as above
# Conditions: both partners purified
row,Kd,Binder
1,56 ± 8 µM,B3
2,> 300 µM,B7
3,> 500 µM,B10
4,> 300 µM,B12
